According to paper PMC7215387, “Comparison of Target Recognition by TRAF1 and TRAF2” (International Journal of Molecular Sciences, 2020):

Molecular target: TRAF2 S454A mutant
Test: Isothermal titration calorimetry (ITC), TRAF2 S454A mutant
Type: binding
Details: Supplementary Figure S1
Experimental: The binding affinities between TRADD-N and TRAF1 or TRAF2 were further quantitatively analyzed using surface plasmon resonance (SPR) experiments (Figure 3a,b). For the SPR experiment, each purified 6xHis-tagged TRAF1 and TRAF2 was coupled to Ni-NTA sensor chips using a His-tag affinity system. Different concentrations of TRADD-N protein, from 0.39 to 3.125 μM, were analyzed for binding to TRAF1 or TRAF2. […] Given their interaction patterns and affinity differences in complex formation, we modeled the structure of the TRAF1:TRADD-N complex by docking TRADD-N to a previously solved TRAF1 structure based on the TRAF2:TRADD-N complex to better understand the affinity differences (Figure 3c,d). According to the previously determined structure of the TRAF2:TRADD-N complex, two distinct binding regions, Region I and II, were identified (Figure 3e). The specific residues from TRAF2 that contributed to the interaction in Region I were T401, H406, L471, and P474. The interaction-contributing residues on TRAF2 in Region II were D445, R448, P449, D450, S454 and G468. All residues in TRAF2 that participated in the interaction with TRADD-N were conserved in TRAF1, except for S454, which was replaced by alanine in TRAF1 (Figure 3f). […]
A NanoITC (TA Instruments) was used for isothermal titration calorimetry experiments. […] Binding isotherms were analyzed by using the software provided by TA Instruments. […]

B1: TRADD-N: N-terminal domain of TRADD (TRADD-N, amino acid residues 1-163) (protein)
chain: MAAGQNGHEEWVGSAYLFVESSLDKVVLSDAYAHPQQKVAVYRALQAALAESGGSPDVLQMLKIHRSDPQLIVQLRFCGRQPCGRFLRAYREGALRAALQRSLAAALAQHSVPLQLELRAGAERLDALLADEERCLSCILAQQPDRLRDEELAELEDALRNLK
modifications: left off: His6 (from the vector pET24a), C-terminal, state not stated
B1 gave a Kd of about 55 nM.
